Data on six molecules can be found in patent EP4545559A2 (INSTITUTO BUTANTAN, dated 2025).

Read-outs that look alike come from different tables or passages of the source.

The target in assay [1] is T1, RBD Omicron (G339D, S371L, S373P, S375F, K417N, N440K, G446S, S477N, T478K, E484A, Q493R, G496S, Q49 (SARS-CoV-2, UniProt P0DTC2 319-541)).
T1 construct: range 319-541
In words: SPR kinetics; ** dissociation in 36000sec. For orientation: Surface plasmon resonance follows binding to a sensor surface in real time, without labels.

Assay [2] deals with T2, RBD Gamma (K417T/E484K/N501Y) (SARS-CoV-2, UniProt P0DTC2 319-541).
T2 construct: domain: RBD
In words: SPR, antigen on CM5 sensor.

Assay [3] addresses T1, RBD Omicron (G339D, S371L, S373P, …). In words: SPR, antigen on CM5 sensor.
Assay [4] addresses T3, RBD Delta (L452R/T478K) (SARS-CoV-2, UniProt P0DTC2 319-541).
T3 construct: domain: RBD
In words: SPR, antigen on CM5 sensor.

For assay [5], the target named is T2, RBD Gamma (K417T/E484K/N501Y). Kind of assay: SPR kinetics; *** did not dissociate until 36000sec.
Assay [6] deals with T3, RBD Delta (L452R/T478K). The assay is described as above.
Assay [7] addresses T2, RBD Gamma (K417T/E484K/N501Y). Kind of assay: SPR, antigen on CM5 sensor. This is another data set of the same source.
Assay [8] deals with T1, RBD Omicron (G339D, S371L, S373P, …). Kind of assay: SPR, antigen on CM5 sensor. This is another data set of the same source.
Assay [9] deals with T3, RBD Delta (L452R/T478K). Kind of assay: SPR, antigen on CM5 sensor. This is another data set of the same source.
The target of assay [10] is T2, RBD Gamma (K417T/E484K/N501Y). In words: SPR kinetics; *** did not dissociate until 36000sec. This is another data set of the same source.
Assay [11] addresses T3, RBD Delta (L452R/T478K). Described as above. This is another data set of the same source.
In assay [12] the target is T1, RBD Omicron (G339D, S371L, S373P, …). Kind of assay: SPR kinetics; * dissociation in 360sec.
Assay [13] deals with T2, RBD Gamma (K417T/E484K/N501Y). Kind of assay: SPR, antigen on CM5 sensor. The source holds these as a separate data set.
Assay [14] deals with T1, RBD Omicron (G339D, S371L, S373P, …). Kind of assay: SPR, antigen on CM5 sensor. The source holds these as a separate data set.
The target of assay [15] is T3, RBD Delta (L452R/T478K). In words: SPR, antigen on CM5 sensor. This is another data set of the same source.
Assay [16] has as its target T1, RBD Omicron (G339D, S371L, S373P, …). In words: SPR kinetics; * dissociation in 360sec. The source holds these as a separate data set.
The target of assay [17] is T3, RBD Delta (L452R/T478K). Kind of assay: SPR kinetics; * dissociation in 360sec.
The target of assay [18] is T2, RBD Gamma (K417T/E484K/N501Y). In words: SPR kinetics; *** did not dissociate until 36000sec. This is another data set of the same source.
For assay [19] the target is unchanged. Described as above. This is another data set of the same source.
Assay [20] concerns the target T1, RBD Omicron (G339D, S371L, S373P, …). The assay is described as above.
In assay [21] the target is T3, RBD Delta (L452R/T478K). The assay is described as above. This is another data set of the same source.
The target in assay [22] is T2, RBD Gamma (K417T/E484K/N501Y). In words: SPR, antigen on CM5 sensor. This is another data set of the same source.
In assay [23] the target is T1, RBD Omicron (G339D, S371L, S373P, …). Kind of assay: SPR, antigen on CM5 sensor. This is another data set of the same source.
Assay [24] has as its target T3, RBD Delta (L452R/T478K). In words: SPR, antigen on CM5 sensor. This is another data set of the same source.
Assay [25] addresses T2, RBD Gamma (K417T/E484K/N501Y). In words: SPR kinetics; *** did not dissociate until 36000sec. This is another data set of the same source.
Assay [26] has as its target T1, RBD Omicron (G339D, S371L, S373P, …). Described as above. This is another data set of the same source.
Assay [27] addresses T2, RBD Gamma (K417T/E484K/N501Y). In words: SPR, antigen on CM5 sensor. The source holds these as a separate data set.
Assay [28] concerns the target T1, RBD Omicron (G339D, S371L, S373P, …). Kind of assay: SPR, antigen on CM5 sensor. The source holds these as a separate data set.
Assay [29] concerns the target T3, RBD Delta (L452R/T478K). In words: SPR, antigen on CM5 sensor. The source holds these as a separate data set.
Assay [30] has as its target T3, RBD Delta (L452R/T478K). In words: SPR kinetics; ** dissociation in 36000sec.
For assay [31], the target named is T2, RBD Gamma (K417T/E484K/N501Y). In words: SPR, antigen on CM5 sensor. This is another data set of the same source.
Assay [32] deals with T1, RBD Omicron (G339D, S371L, S373P, …). Kind of assay: SPR, antigen on CM5 sensor. The source holds these as a separate data set.
For assay [33], the target named is T3, RBD Delta (L452R/T478K). In words: SPR, antigen on CM5 sensor. The source holds these as a separate data set.
The target in assay [34] is T1, RBD Omicron (G339D, S371L, S373P, …). In words: SPR kinetics; * dissociation in 360sec. The source holds these as a separate data set.
The target of assay [35] is T2, RBD Gamma (K417T/E484K/N501Y). Kind of assay: SPR kinetics; *** did not dissociate until 36000sec. The source holds these as a separate data set.
The target of assay [36] is T3, RBD Delta (L452R/T478K). Described as above. This is another data set of the same source.

B1: Monoclonal antibody S.9.4.F4 (antibody, V domains shown)
VH: QVQLVESGGGVVQPGRSLRLSCAASGFTFSHYGMHWVRQAPGKGLEWVAVILYDGSNEYYADSVKGRFTISRDNSKNTLYLQMNSLRAEDTAVYYCAKGAGTYCSGGNCYVAYFDYWGQGTLVTVSS
VL: AIRMTQSPSSLSASVGDRVTITCQASQDISNYLNWYQQKPGKAPKLLIYDASNLETGVPSRFSGSGSGTDFTVTISSLQPEDFATYYCQQYDNLPLTFGGGTKVEIK
notes: also called mAb S.9.4.F4
In general, Kd refers to the equilibrium constant for the complex coming apart. Higher therefore signals a looser complex. Turning to B1, the Kd in [1] was 231 pM; in assay [5], roughly 18.7 pM; in [6], roughly 1.22 pM. In addition, the figures for the RU in assay [2], in [3] and in assay [4] were 160 RU, 74 RU and 373 RU, respectively.

B2: Monoclonal antibody S.11.1.C8 (antibody, V domains shown)
VH: QVQLVESGGGVVQPGRSLRLSCAASGFTFSTFSMHWVRQAPGKGLEWVAVILYDGTYKSYADSVKGRFTISRDNSGNTLFLQMNSLRAEDSAVYYCARDFGEMTTYFDFWGQGTLVTVSS
VL: DIQMTQPPSSLSASVGDRVTITCRASQSIGNNLNWYQQKPGKAPKLLIYVASSLQSGVPSRFSGSGSGTDFTLTISSLQPEDFATYFCQQSYSTPPWTFGQGTKVEIK
notes: also called mAb S.11.1.C8
For the molecule B2, the RU in [7] turned out to be 360 RU; in [8] it was 166 RU; in [9], 799 RU. The Kd is roughly 103 pM in assay [10], roughly 13.1 pM in assay [11] and 615 pM in assay [12].

B3: Monoclonal antibody S.11.1.D12 (antibody, V domains shown)
VH: EVQLLESGGGLVQPGGSLRLSCAASGFPFITYPMSWVRQAPGKGLEWVSDIGGIGGSTSYADSVKGRFTISRDNYQNTVYLQMHSLRAEDTAVYYCAKWKSRVDSSYKGGGWFDSWGPGTLVTVSS
VL: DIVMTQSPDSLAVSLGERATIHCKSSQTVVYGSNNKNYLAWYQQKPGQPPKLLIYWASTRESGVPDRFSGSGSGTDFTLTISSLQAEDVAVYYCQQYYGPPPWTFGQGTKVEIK
notes: also called mAb S.11.1.D12
Turning to B3, the figures for the RU in assay [13], in assay [14] and in assay [15] were 44 RU, 145 RU and 771 RU, respectively. Moreover, the dissociation constant Kd is 3730 pM in assay [16], 636 pM in [17] and roughly 11000 pM in [18].

B4: Monoclonal antibody S.10.1.C6 (antibody, V domains shown)
VH: QLQLQESGPGLVKPSETLSLTCTVSGGSISSSSYYWGWIRQPPGKGLEWIGSFYYSGGSYYNPSLKSRVTISVDTSKNQFSLKLSSVTAADTAVYYCARDEHGDYAVGYWGQGTLVTVSS
VL: QSVLTQPPSVSGAPGQRVTISCTGSSSNIGAGYDVHWYQQLPGTAPKLLIYGNNNRPSGVPDRFSGSKSGTSASLAITGLQAEDEADYYCQSYDSSLSALYVFGTGTKVTVL
notes: also called S.10.1.C6 mAb
Take B4: the dissociation constant (Kd) in assay [19] is roughly 235 pM; in assay [20], roughly 804 pM; in assay [21] it was roughly 8.12 pM. In addition, the results for the RU in [22], in assay [23] and in [24] were 134 RU, 66 RU and 343 RU, respectively.

B5: Monoclonal antibody S.9.2.D7 (antibody, V domains shown)
VH: EVQLLESGGGLIQTGGSLRLSCAASGFTFSSYAMSWVRQAPGKGLEWVSVISDSGGSTYYADSVKGRLTISRDNSKNTLYVQMNSLRAEDTAVYYCAKGKGGIAAAGPAFLFDYWGQGTLVTVSS
VL: DIQMTQSPSLLSASAGDRVTISCRMSQGISSYLAWYQQKPGKAPELLISSASTLQSGVPSRFSGSGSGTDFTLTISYLQSEDFATYYCQQYYSFPTTFGGGTKVEIK
notes: also called mAb S.9.2.D7
Turning to B5, the equilibrium dissociation constant (Kd) was roughly 0.237 pM in [25], roughly 6.29 pM in assay [26] and 1.84 pM in assay [30]. Also, the RU in assay [27] was found to be 50 RU; in [28], 0 RU; in [29], 0 RU.

B6: Monoclonal antibody S.9.4.C7 (antibody, V domains shown)
VH: QVQLVESGGGVVQPGRSLRLSCAASGFTFRNYAMHWVRQAPGKGLEWVTVISYDGSDKYYADSVKGRFTISRDNSKNTLYLQMNSLRAEDTAVYYCAKDPVGGYCSGGRCYFHSHYFDYWGQGTLVTVSS
VL: NFMLTQPHSVSESPGKTVTISCTRSSGSIASYYVQWYQQRPGSSPTTVISEDNQRPSGVPDRFSGSIDSSSNSASLTISGLKTEDEADYYCQSYDSNNHVIFGGGTKLTVL
notes: also called mAb S.9.4.C7
B6: the RU was determined as 481 RU in assay [31], 160 RU in assay [32] and 1150 RU in assay [33]. For the same molecule, the Kd in assay [34] was 1310 pM; in [35], roughly 205 pM; in [36] it was roughly 140 pM.
